Results reported in the array DNA melting data of Ke et al..

test: melting temperature; melt of duplexes; conditions: sodium 0.0675 M; strand 1 µM

Row | Substance | Tm [°C]
1 | CGACGTGCTTGATGTGCTG+CAGCACATTTGGCACGTCG ((((((((...((((((((+))))))))...)))))))) | 50.8
2 | CGACGTGCGGGATGTGCTG+CAGCACATTACGCACGTCG (((((((((..((((((((+))))))))..))))))))) | 58
3 | CGACGTGCTTCATGTGCTG+CAGCACATGACGCACGTCG ((((((((.((((((((((+)))))))))).)))))))) | 55.1
4 | CGACGTGCTGTATGTGCTG+CAGCACATGCCGCACGTCG ((((((((.(.((((((((+)))))))).).)))))))) | 52.8
5 | CGACGTGCGTCATGTGCTG+CAGCACATTAAGCACGTCG ((((((((.(.((((((((+)))))))).).)))))))) | 53.3
6 | CGACGTGCACCATGTGCTG+CAGCACATAGCGCACGTCG ((((((((.(.((((((((+)))))))).).)))))))) | 46.1
7 | CGACGTGCGACATGTGCTG+CAGCACATGGAGCACGTCG ((((((((..(((((((((+)))))))))..)))))))) | 63.5
8 | CGACGTGCCTCATGTGCTG+CAGCACATTCAGCACGTCG ((((((((...((((((((+))))))))...)))))))) | 47.9
9 | CGACGTGCGTAATGTGCTG+CAGCACATCCTGCACGTCG ((((((((...((((((((+))))))))...)))))))) | 49.7
10 | CGACGTGCTCCATGTGCTG+CAGCACATGTTGCACGTCG ((((((((..(((((((((+)))))))))..)))))))) | 52.7
11 | CGACGTGCTACATGTGCTG+CAGCACATGCGGCACGTCG ((((((((..(((((((((+)))))))))..)))))))) | 54.1
12 | CGACGTGCCGAATGTGCTG+CAGCACATGGCGCACGTCG ((((((((...((((((((+))))))))...)))))))) | 51.5
13 | CGACGTGCCCGATGTGCTG+CAGCACATTGGGCACGTCG ((((((((((.((((((((+)))))))).)))))))))) | 62.4
14 | CGACGTGCGTGATGTGCTG+CAGCACATGGGGCACGTCG ((((((((...((((((((+))))))))...)))))))) | 51.2
15 | CGACGTGCTTAATGTGCTG+CAGCACATTTCGCACGTCG ((((((((..(((((((((+)))))))))..)))))))) | 51
16 | CGACGTGCTGCATGTGCTG+CAGCACATGGGGCACGTCG ((((((((..(((((((((+)))))))))..)))))))) | 57
17 | CGACGTGCAAAATGTGCTG+CAGCACATCGAGCACGTCG ((((((((...((((((((+))))))))...)))))))) | 49.2
18 | CGACGTGCATGATGTGCTG+CAGCACATATTGCACGTCG (((((((((..((((((((+))))))))..))))))))) | 52.3
19 | CGACGTGCTTAATGTGCTG+CAGCACATTGAGCACGTCG (((((((((.(((((((((+))))))))).))))))))) | 56.9
20 | CGACGTGCTGGATGTGCTG+CAGCACATATAGCACGTCG (((((((((..((((((((+))))))))..))))))))) | 54.6
21 | CGACGTGCACCATGTGCTG+CAGCACATGTGGCACGTCG ((((((((..(((((((((+)))))))))..)))))))) | 53.4
22 | CGACGTGCTCTATGTGCTG+CAGCACATTTTGCACGTCG ((((((((...((((((((+))))))))...)))))))) | 49
23 | CGACGTGCTCGATGTGCTG+CAGCACATTGCGCACGTCG ((((((((.(.((((((((+)))))))).).)))))))) | 52.4
24 | CGACGTGCATCATGTGCTG+CAGCACATTCAGCACGTCG ((((((((...((((((((+))))))))...)))))))) | 47.8

Row | Substance | Tm [°C]
25 | CGACGTGCGTCATGTGCTG+CAGCACATAGCGCACGTCG (((((((((..((((((((+))))))))..))))))))) | 55.1
26 | CGACGTGCGGCATGTGCTG+CAGCACATCTCGCACGTCG (((((((((..((((((((+))))))))..))))))))) | 53.4
27 | CGACGTGCGTCATGTGCTG+CAGCACATCCAGCACGTCG ((((((((...((((((((+))))))))...)))))))) | 50.7
28 | CGACGTGCAAGATGTGCTG+CAGCACATTTTGCACGTCG ((((((((((.((((((((+)))))))).)))))))))) | 57.3
29 | CGACGTGCTCAATGTGCTG+CAGCACATCCAGCACGTCG (((((((((..((((((((+))))))))..))))))))) | 50.5
30 | CGACGTGCCAAATGTGCTG+CAGCACATAGAGCACGTCG ((((((((...((((((((+))))))))...)))))))) | 49.1
31 | CGACGTGCCGGATGTGCTG+CAGCACATATGGCACGTCG (((((((((..((((((((+))))))))..))))))))) | 57.2
32 | CGACGTGCCAAATGTGCTG+CAGCACATAACGCACGTCG ((((((((...((((((((+))))))))...)))))))) | 47.7
33 | CGACGTGCTCGATGTGCTG+CAGCACATTGAGCACGTCG ((((((((((.((((((((+)))))))).)))))))))) | 60.7
34 | CGACGTGCTCTATGTGCTG+CAGCACATCATGCACGTCG ((((((((...((((((((+))))))))...)))))))) | 48.5
35 | CGACGTGCGCCATGTGCTG+CAGCACATTTGGCACGTCG ((((((((...((((((((+))))))))...)))))))) | 47.4
36 | CGACGTGCCCGATGTGCTG+CAGCACATAAAGCACGTCG ((((((((...((((((((+))))))))...)))))))) | 49.8
37 | CGACGTGCTGCATGTGCTG+CAGCACATAACGCACGTCG ((((((((...((((((((+))))))))...)))))))) | 49.4
38 | CGACGTGCGGAATGTGCTG+CAGCACATTATGCACGTCG ((((((((..(((((((((+)))))))))..)))))))) | 55.4
39 | CGACGTGCAGTATGTGCTG+CAGCACATTTAGCACGTCG ((((((((...((((((((+))))))))...)))))))) | 48.6
40 | CGACGTGCATGATGTGCTG+CAGCACATAGCGCACGTCG ((((((((...((((((((+))))))))...)))))))) | 47.4
41 | CGACGTGCGTCATGTGCTG+CAGCACATACTGCACGTCG ((((((((...((((((((+))))))))...)))))))) | 50.9
42 | CGACGTGCCATATGTGCTG+CAGCACATACCGCACGTCG ((((((((..(((((((((+)))))))))..)))))))) | 48.3
43 | CGACGTGCAGAATGTGCTG+CAGCACATGCCGCACGTCG ((((((((.(.((((((((+)))))))).).)))))))) | 54.6
44 | CGACGTGCACCATGTGCTG+CAGCACATAAAGCACGTCG ((((((((...((((((((+))))))))...)))))))) | 45
45 | CGACGTGCGCCATGTGCTG+CAGCACATTACGCACGTCG (((((((((..((((((((+))))))))..))))))))) | 52.3
46 | CGACGTGCTAGATGTGCTG+CAGCACATCCAGCACGTCG (((((((((.(((((((((+))))))))).))))))))) | 56.1
47 | CGACGTGCAATATGTGCTG+CAGCACATTTAGCACGTCG ((((((((.(.((((((((+)))))))).).)))))))) | 50.8
48 | CGACGTGCCTAATGTGCTG+CAGCACATGGGGCACGTCG (((((((((..((((((((+))))))))..))))))))) | 56

Row | Substance | Tm [°C]
49 | CGACGTGCGGTATGTGCTG+CAGCACATAATGCACGTCG ((((((((..(((((((((+)))))))))..)))))))) | 54.6
50 | CGACGTGCCTAATGTGCTG+CAGCACATGCGGCACGTCG (((((((((..((((((((+))))))))..))))))))) | 53.3
51 | CGACGTGCCGTATGTGCTG+CAGCACATAATGCACGTCG ((((((((..(((((((((+)))))))))..)))))))) | 50.3
52 | CGACGTGCTGCATGTGCTG+CAGCACATGTTGCACGTCG ((((((((..(((((((((+)))))))))..)))))))) | 56.4
53 | CGACGTGCGGTATGTGCTG+CAGCACATGGGGCACGTCG ((((((((...((((((((+))))))))...)))))))) | 51.7
54 | CGACGTGCAGAATGTGCTG+CAGCACATGACGCACGTCG ((((((((...((((((((+))))))))...)))))))) | 53.1
55 | CGACGTGCCACATGTGCTG+CAGCACATATTGCACGTCG ((((((((.(.((((((((+)))))))).).)))))))) | 47.4
56 | CGACGTGCGGGATGTGCTG+CAGCACATACCGCACGTCG ((((((((((.((((((((+)))))))).)))))))))) | 63.1
57 | CGACGTGCTACATGTGCTG+CAGCACATACTGCACGTCG ((((((((...((((((((+))))))))...)))))))) | 49.3
58 | CGACGTGCATGATGTGCTG+CAGCACATATGGCACGTCG ((((((((...((((((((+))))))))...)))))))) | 49.7
59 | CGACGTGCTTCATGTGCTG+CAGCACATCTGGCACGTCG ((((((((...((((((((+))))))))...)))))))) | 48.9
60 | CGACGTGCTCTATGTGCTG+CAGCACATCGCGCACGTCG ((((((((.(.((((((((+)))))))).).)))))))) | 48.3
61 | CGACGTGCATTATGTGCTG+CAGCACATTACGCACGTCG ((((((((.(.((((((((+)))))))).).)))))))) | 49.3
62 | CGACGTGCTTGATGTGCTG+CAGCACATACCGCACGTCG ((((((((...((((((((+))))))))...)))))))) | 48.4
63 | CGACGTGCGTTATGTGCTG+CAGCACATGATGCACGTCG ((((((((.(.((((((((+)))))))).).)))))))) | 54.6
64 | CGACGTGCCGTATGTGCTG+CAGCACATCTCGCACGTCG ((((((((...((((((((+))))))))...)))))))) | 48.5
65 | CGACGTGCGAAATGTGCTG+CAGCACATGAAGCACGTCG ((((((((...((((((((+))))))))...)))))))) | 59.3
66 | CGACGTGCTATATGTGCTG+CAGCACATTTAGCACGTCG ((((((((((.((((((((+)))))))).)))))))))) | 55.3
67 | CGACGTGCCCGATGTGCTG+CAGCACATCAAGCACGTCG ((((((((..(((((((((+)))))))))..)))))))) | 52.8
68 | CGACGTGCTCCATGTGCTG+CAGCACATGGGGCACGTCG ((((((((.((((((((((+)))))))))).)))))))) | 61.9
69 | CGACGTGCCAAATGTGCTG+CAGCACATACTGCACGTCG ((((((((...((((((((+))))))))...)))))))) | 47.4
70 | CGACGTGCCAAATGTGCTG+CAGCACATTACGCACGTCG ((((((((..(((((((((+)))))))))..)))))))) | 50.5
71 | CGACGTGCCCAATGTGCTG+CAGCACATCCCGCACGTCG ((((((((...((((((((+))))))))...)))))))) | 47.9
72 | CGACGTGCTCTATGTGCTG+CAGCACATACCGCACGTCG ((((((((..(((((((((+)))))))))..)))))))) | 48.5
